In patent CN116102649A (SHANGHAI INST OF BIOLOGICAL PRODUCTS CO LTD, dated 2023):

Tests used:
[1] = target: T1, 人CLDN18.2 (claudin-18 isoform 2 [Homo sapiens], NP_001002026.1) (human); assay: cell-based or functional assay
[2] = target: T1, 人CLDN18.2 (claudin-18 isoform 2 [Homo …); assay: cell-based or functional assay; remark: listed apart in the source
[3] = target: T2, 人CLDN18.1 (claudin-18 isoform 1 precursor [Homo sapiens], NP_057453.1) (human, UniProt P56856 1-261); assay: flow cytometry on HEK293-hCLDN18.1 cells
T2 construct: Full-length gene in pEGFP-N2, stably expressed on HEK293 cells (HEK293-hCLDN18.1); also called hCLDN18.1; HEK293-hCLDN18.1
T2 sequence: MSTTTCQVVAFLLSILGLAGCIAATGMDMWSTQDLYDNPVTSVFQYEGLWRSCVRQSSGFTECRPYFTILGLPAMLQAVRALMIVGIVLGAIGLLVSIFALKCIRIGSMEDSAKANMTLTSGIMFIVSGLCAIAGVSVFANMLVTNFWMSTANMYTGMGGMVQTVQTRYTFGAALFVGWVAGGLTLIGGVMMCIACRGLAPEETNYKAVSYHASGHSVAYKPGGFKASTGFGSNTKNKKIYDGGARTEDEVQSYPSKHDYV

[4] = target: T1, 人CLDN18.2 (claudin-18 isoform 2 [Homo …); assay: cell ELISA on fixed HEK293-hCLDN18.2 cells
[5] = target: T1, 人CLDN18.2 (claudin-18 isoform 2 [Homo …); assay: cell ELISA on fixed NUGC4 cells (endogenous human CLDN18.2)
[6] = target: T1, 人CLDN18.2 (claudin-18 isoform 2 [Homo …); assay: flow cytometry on HEK293-hCLDN18.2 cells, MFI against concentration

Row | Binder | CDC on HEK293-hCLDN18.2 cells (rabbit complement, CCK-8), EC50 [1] [µg/mL] | ADCC reporter gene assay (Jurkat/NFAT-luc+FcγRIIIa) on HEK293-hCLDN18.2 cells, EC50 [2] [µg/mL] | binding result [3] | EC50 [4] [µg/mL] | 相对结合活性 (relative to Ref.ch175) [4] [%] | EC50 [5] [µg/mL] | EC50 [6] [µg/mL] | ADCC reporter gene assay on HEK293-hCLDN18.2 cells, EC50 [1] [µg/mL]
1 | 嵌合抗体ch782 (antibody, V domains shown) VH: DVQLQESGPDLVKPSQSLSLTCTVTGYSITSGYSWHWIRQFPGNKLEWMGYIHYSDNTNYSPSLKSRISITRDTSKNQFFLQLNSVTTEDTATYYCARIYYGNSFVYWGQGTLVTVSA VL: DIVMTQSPSSLTVTAGEKVTMSCKSSQSLLNSGNQKNYLTWYQQKPGQPPKLLIYWASTRESGVPDRFTGSGSGTDFTLTINSVQAEDLAVYYCQNDYFYPYTFGGGTKLEIK | 0.0309 | 0.0476 | no binding | 0.0173 | 180 | 0.57 | 0.81 | 
2 | 人源化抗体hu782-HV (H1.2-V101A L2组合) (antibody, human IgG1, V domains shown) VH: QVQLQESGPGLVKPSETLSLTCTVSGYSITSGYSWHWIRQPPGKGLEWMGYIHYSDNTNYAPSLKSRITISRDTSKNQFSLKLSSVTAADTAVYYCARIYYGNSFAYWGQGTLVTVSS VL: DIVMTQSPDSLAVSLGERATINCKSSQSLLNSGNQKNYLTWYQQKPGQPPLLIYWASTRESGVPDRFSGSGSGTDFTLTISSLQAEDVAVYYCQNDYFYPYTFGGGTKLEIK | 0.0476 |  |  |  |  |  |  | 0.0709
3 | 嵌合抗体ch624 (antibody, V domains shown) VH: QVQLQQPGAELVRPGASVKLSCKASGYSFTSYWMNWVKQRPGQGLEWIGMIHPSDSETRLNQKFKDKATLTVDKSSSTAYMQLSSPTSEDSAVYYCARTSYGNSFAYWGQGTLVTVSA VL: DIVMTQSPSSLTVTAGEKVTMSCKSSQSLLNSGNQKNYLTWYQQKPGQPPKLLIYWASTRESGVPDRFTGSGSGTDFTLTISSVQAEDLAVYYCQNDYSYPFTFGSGTKLEIK |  |  | no binding | 0.0392 | 79.3 |  |  | 
